Laboratory results from IntAct's records for PubMed 15546359.

B1: Auxin-responsive protein IAA1 (Arabidopsis thaliana (Mouse-ear cress)), P49677 (parent)
chain: MEVTNGLNLKDTELRLGLPGAQEEQQLELSCVRSNNKRKNNDSTEESAPPPAKTQIVGWPPVRSNRKNNNNKNVSYVKVSMDGAPYLRKIDLKMYKNYPELLKALENMFKFTVGEYSEREGYKGSGFVPTYEDKDGDWMLVGDVPWDMFSSSCQKLRIMKGSEAPTAL
partner: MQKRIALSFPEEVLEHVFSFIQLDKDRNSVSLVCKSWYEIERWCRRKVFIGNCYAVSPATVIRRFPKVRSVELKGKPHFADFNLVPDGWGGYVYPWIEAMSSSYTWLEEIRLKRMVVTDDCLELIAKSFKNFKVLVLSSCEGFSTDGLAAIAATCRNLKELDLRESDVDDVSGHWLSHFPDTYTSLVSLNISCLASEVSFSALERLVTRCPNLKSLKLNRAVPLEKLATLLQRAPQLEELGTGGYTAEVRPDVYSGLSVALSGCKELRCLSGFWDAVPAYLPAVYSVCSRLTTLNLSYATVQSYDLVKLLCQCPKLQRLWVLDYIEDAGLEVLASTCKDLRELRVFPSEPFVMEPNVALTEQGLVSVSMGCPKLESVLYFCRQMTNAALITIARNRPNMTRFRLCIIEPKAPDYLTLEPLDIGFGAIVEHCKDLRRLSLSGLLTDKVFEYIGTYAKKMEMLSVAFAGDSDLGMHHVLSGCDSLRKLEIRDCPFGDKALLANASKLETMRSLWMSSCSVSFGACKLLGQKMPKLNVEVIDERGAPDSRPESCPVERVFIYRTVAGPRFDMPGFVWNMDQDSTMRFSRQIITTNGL

Variants of: B1
Details: with tir1_arath TIR1, Q570C0

effect of a mutation on the interaction | Variant
decreasing interaction | MEVTNGLNLKDTELRLGLPGAQEEQQLELSCVRSNNKRKNNDSTEESAPPPAKTQIVGWPSVRSNRKNNNNKNVSYVKVSMDGAPYLRKIDLKMYKNYPELLKALENMFKFTVGEYSEREGYKGSGFVPTYEDKDGDWMLVGDVPWDMFSSSCQKLRIMKGSEAPTAL [P61S]
